Assay results: patent publication US20190112382A1 (published 2019)
Residue numbers refer to the chain shown, from its start.

T1: extracellular domain of human CD269 (BCMA, TNFRSF17) (human, UniProt Q02223 4-54)
T1 construct: also called hBCMA; human BCMA
T1 sequence: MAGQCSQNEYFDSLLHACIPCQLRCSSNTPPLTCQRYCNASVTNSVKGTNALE

B1: J22.9-H (antibody, V domains shown)
VH: EVQLVESGGGLVQPGGSLRLSCAASGFTFSRYWMSWVRQAPGKGLVWVGEINPDSSTINYAPSLKDKFTISRDNAKNTLYLQMNSLRAEDTAVYYCASLYYDYGDAMDYWGQGTLVTVSS
VL: EIVMTQSPATLSVSPGERATLSCKASQSVDSNVAWYQQKPGQAPRALIYSASLRFSGIPARFSGSGSGTEFTLTISSLQSEDFAVYYCQQYNNYPLTFGAGTKLELKR
B2: J22.9-ISY (antibody, V domains shown)
VH: B1 VH with M34I, D54S, M107Y
VL: EIVMTQSPATLSVSPGERATLSCKASQSVESNVAWYQQKPGQAPRALIYSASLRFSGIPARFSGSGSGTEFTLTISSLQSEDFAVYYCQQYNNYPLTFGAGTKLELK
B3: J22.9-FSY (antibody, V domains shown)
VH: B1 VH with M34F, D54S, M107Y
VL: B2 VL

target: T1, extracellular domain of human CD269 …; test: SPR, IgG immobilised on GLH chip, BCMA in the mobile phase (n = 3)

Q: How did the Kd turn out when B1 was run?
A: The Kd was 15 nM.

Q: Which Kd does the source give for B2 here?
A: The Kd was 2 nM.

Q: With B3 as the binder, how does the Kd read?
A: The Kd was 2.2 nM.

target: T2, extracellular domain of cynomolgous BCMA (cynomolgous, UniProt A0A2K5UD97 1-53); test: SPR, IgG immobilised on GLH chip, BCMA in the mobile phase (n = 2)
T2 construct: Used coated on plates in ELISA and in the mobile phase in SPR; also called cyBCMA; cynoBCMA
T2 sequence (A0A2K5UD97 entry or part of it limits assumed, form in doubt): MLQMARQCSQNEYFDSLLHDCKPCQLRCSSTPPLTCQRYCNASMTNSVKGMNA

Q: Which Kd does the source give for B1 here?
A: The Kd was 200 nM.

Q: How did the Kd turn out when B2 was run?
A: Its Kd is 17 nM.

Q: With B3 as the binder, how does the Kd read?
A: The Kd was 20 nM.
